Measurements taken from patent publication US20250034222.

Assay: SEC after Ni-NTA purification, area under monomer and dimer peaks

B1: WT IL-38 (residues 3-152, initiator methionine, C-terminal His6 tag) (protein)
chain: MSLPMARYYIIKYADQKALYTRDGQLLVGDPVADNCCAEKICILPNRGLARTKVPIFLGIQGGSRCLACVETEEGPSLQLEDVNIEELYKGGEEATRFTFFQSSSGSAFRLEAAAWPGWFLCGPAEPQQPVQLTKESEPSARTKFYFEQSW
% monomer upon purification: WT IL-38 forms ˜20% dimer upon purification, ˜80% monomer
